According to patent US20120115880A1 (ST JUDE CHILDREN S RESEARCH HOSPITAL, published 2012):

What was measured:
[1] = target: T1, recombinant MDMX (amino acid residues 1-185) GST fusion protein (UniProt O15151 1-185); test: fluorescence polarization assay with recombinant GST-MDMX (1-185)
T1 construct: range 1-185; Expressed in E. coli BL21(DE3) from pGEX-4-T-1 and eluted as a GST fusion; GST is placed N-terminally by the usual layout of the vector; also called MDMX-GST; not shown: glutathione S-transferase tag encoded by pGEX-4-T-1
T1 sequence (looked up): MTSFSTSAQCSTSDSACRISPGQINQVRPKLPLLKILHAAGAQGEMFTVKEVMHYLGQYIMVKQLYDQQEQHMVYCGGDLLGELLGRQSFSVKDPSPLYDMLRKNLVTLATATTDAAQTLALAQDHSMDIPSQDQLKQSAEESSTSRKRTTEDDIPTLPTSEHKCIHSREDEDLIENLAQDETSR
Description: (§1) Kd's and Kᵢ's were calculated by fitting the data to a single-site binding mode with variable slope (Y=Bottom+(Top−Bottom)/(1+10̂((LogEC50-X)*HillSlope))) using […] PRISM software.

[2] = target: T2, recombinant MDM2 (amino acid residues 1-188) GST fusion protein (UniProt Q00987 1-188); test: fluorescence polarization assay with recombinant GST-MDM2 (1-188)
T2 construct: range 1-188; Expressed in E. coli BL21(DE3) from pGEX-4-T-1 and eluted as a GST fusion; GST is placed N-terminally by the usual layout of the vector; not shown: glutathione S-transferase tag encoded by pGEX-4-T-1
Description: as §1

T2 sequence (Q00987 1-188): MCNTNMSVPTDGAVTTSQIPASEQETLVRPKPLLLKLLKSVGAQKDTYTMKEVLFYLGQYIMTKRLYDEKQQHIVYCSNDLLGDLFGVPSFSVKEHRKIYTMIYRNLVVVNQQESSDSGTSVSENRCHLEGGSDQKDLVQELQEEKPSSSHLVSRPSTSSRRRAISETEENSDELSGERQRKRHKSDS

binding result [1]: no binding
binding result [2]: no binding
Binder: H-GSGSSQETASDLAKLAPEN-OH
